In US20240270804:

Biological target: T1, myc- and green-fluorescent protein (GFP) tagged mAKAP 1694-1833 (UniProt Q9WVC7)
T1 sequence: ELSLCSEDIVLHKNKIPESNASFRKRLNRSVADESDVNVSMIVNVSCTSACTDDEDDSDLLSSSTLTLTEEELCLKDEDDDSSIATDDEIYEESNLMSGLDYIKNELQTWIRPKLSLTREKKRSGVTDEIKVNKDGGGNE

Substance: endogenous CaMKII (Ca2+/calmodulin-dependent protein kinase II) of neonatal rat ventricular myocytes
- HDAC4 phosphorylation (basal and Angiotensin II-induced) in neonatal myocytes: both basal and Angiotensin II-induced HDAC4 phosphorylation in neonatal myocytes is inhibited by mAKAP 1694-1833 expression
